In PMC4959528, “SpoVG Is a Conserved RNA-Binding Protein That Regulates Listeria monocytogenes Lysozyme Resistance, Virulence, and Swarming Motility”:

Experiments:
[1] = target: T1, SpoVG-6-His (Listeria monocytogenes 10403S) (UniProt Q8YAD5); test: EMSA; conditions: 2x buffer: 40 mM Tris-HCl pH 8.0, 2 mM MgCl2, 20% glycerol, 300 mM NaCl, 5 mM DTT, plus 5 ug yeast tRNA, 1 ug BSA, 100 ng poly(dI-dC) …
T1 sequence: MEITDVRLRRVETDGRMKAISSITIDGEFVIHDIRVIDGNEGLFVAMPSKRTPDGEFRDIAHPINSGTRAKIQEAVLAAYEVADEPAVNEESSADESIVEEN

[2] = target: T1, SpoVG-6-His (Listeria monocytogenes 10403S); test: competition; conditions: EMSA, 2x buffer: 40 mM Tris-HCl pH 8.0, 2 mM MgCl2, 20% glycerol, 300 mM NaCl, 5 mM DTT; plus 5 ug yeast tRNA, 1 ug BSA, 100 ng poly(dI-dC) …
SpoVG-6-His [3] = target: T2, SpoVG-6-His (Listeria monocytogenes 10403S, UniProt Q8YAD5 1-102); test: EMSA; no significant binding to dsDNA; EMSA, 2x buffer: 40 mM Tris-HCl pH 8.0, 2 mM MgCl2, 20% glycerol, 300 mM NaCl, 5 mM DTT; plus 5 ug yeast tRNA, 1 ug BSA, 100 ng poly(dI-dC); 25-30 ul, room temperature 30 min, 5% native PAGE; conditions: protein: recombinant; tags: C-terminal 6xHis; label: 32P; blunt
T2 sequence: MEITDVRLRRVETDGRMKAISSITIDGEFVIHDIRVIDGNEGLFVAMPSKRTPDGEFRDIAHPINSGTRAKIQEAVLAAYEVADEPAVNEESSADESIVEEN

SpoVG-6-His [4] = target: T2, SpoVG-6-His; test: EMSA; EMSA, 2x buffer: 40 mM Tris-HCl pH 8.0, 2 mM MgCl2, 20% glycerol, 300 mM NaCl, 5 mM DTT; plus 5 ug yeast tRNA, 1 ug BSA, 100 ng poly(dI-dC); 25-30 ul, room temperature 30 min, 5% native PAGE; conditions: protein: recombinant; tags: C-terminal 6xHis; label: 32P

Molecule | binding [1] | Kd [1] [nM] | also measured
GGUUGUCGUGCUAGACGGGGAGGUAGCGGCGCCCUGUAACCCGCAAUCCGCUCUAGCGGGGUUGAAUUCCUCAUUUGAGGCAUCGUAAUUGUUUGGUCUGCCCUUGACAAGUGGUGUUGAAGGUUGGGUCUUGCGCAAUGGGAACCUGUGAACCAUGUCAGGUCCGGAAGGAAGCAGCAUUAAGCAGUGCUUCUCAUGUGCCGCGAGGUCGCCUGGCCCGAGCUAACUAUCAGGGUAACGCAGAUGAUUGCAUGUCGAUGUGAGGUGCGCGACACUAA [SRP RNA] | no binding |  | 
Rli32 |  | 273 | 
GGUAUCCCAUAGAGAUUGUCAUUUGAAAUAAGCUAAUUGAAAAUAAAUUACUUCCCCCAUAGAAAUAUUCUUAAUUGCUUAUUUCAAAUAAACACUCCUUUAAGAUAGUUGUAGCACAGAAUUUCCCAGAUUCUGUGCUAUAAUUA [Rli31] |  | 273 | 
Rli31 |  | 273 | 
GGGUGGAGAGCUUUCAUUUUUCCCAAGAGAAAGCAAAUAAUGUUAGAGCAAUAAUUCUAGUAUCCGAAUUAGUCUUAUCCCUUGGCUCGCUUUAAUAUUAUUUCUCCCUAAUACUCCCUUAACCGCAUCCCCCUGGUGCGGUUAUUUUUUUG [Rli32] |  | 273 | 
GGGCAGUGGAAUUAAAGGCAUCUAAGCAAAUCAUGAUGAACGAGAGAACCGUUUGAAGAUCAUCCGAAUGACGUAUAUGUUCUACCUUGAUCUGUUCAGCCGCAAUGCUUUUGCGAGUGACA [Rli109] |  | 129 | binding [2]: binds
GGUAUCCCAUAGAGAUUGUCAGGGGAAAUAAGCUAAUUGAAAAUAAAUUACUUCCCCCAUAGAAAUAUUCUUAAUUGCUUAUUUCAAAUAAACACUCCUUUAAGAUAGUUGUAGCACAGAAUUUCCCAGAUUCUGUGCUAUAAUUA [Rli31 mutant A] | binds |  | 
GGUAUCCCAUAGAGAUUGUCAUUUGAAAUAAGCUAAUUGAAAAUAAAUUACUUUUUCCAUAGAAAUAUUCUUAAUUGCUUAUUUCAAAUAAACACUCCUUUAAGAUAGUUGUAGCACAGAAUUUCCCAGAUUCUGUGCUAUAAUUA [Rli31 mutant E] |  |  | binding signal [1]: binds more weakly
Rli109 |  | 129 | 
GGUGAGAUGACAUGUUUCUUUUGAAUGCGCGAACUAGUAUAGCUAAAUUUUUGUAUAUUGUCCGUGCAAUUUUUUCCGUUAUUGCAGUUACAUUGGCGAAGUCUGCCCAAAAAACUGUAUAACUAGAAAAAAUGAGAGAAGCAUGGAGUCACGCAAUCGAUUUGUAUAGUGCUAAAUUAGUAUUAUACUUAUAAUUGGCGUCGGGCGCUUGUCUGACGCUUUUUUGUUGUCUGAAAAAA [RliI] | binds more weakly |  | 
GGGAAAAGAAACCCUAAUGUAUUCGAUAUAGUUCCUGAUAUUUUUGAACCGAACAAUUUUUUAUACCUAGGGAGCUUGGAGUUCCGGCGCGGCGCACAUGCCUUCACACGAGGAAGUGCAAACCGUUAGACAGAGCACCCACCUGCUUUAAUUGAGAGCGGGUUCAAAGGAAGGGAAUCCUAAACGGUACGAUUGGGGUUUCUUUUUUG [6S RNA] | no binding |  | 
cap41 dsDNA (dsDNA) DNA 1: GAGTATAATTATTTTTAATTTACATATAAATAAAAAGGCGAAAATAATGCGGTTTAAAAGTAATTAAT DNA 2: ATTAATTACTTTTAAACCGCATTATTTTCGCCTTTTTATTTATATGTAAATTAAAAATAATTATACTC |  |  | binding result (SpoVG-6-His [3]): no binding
GTCGCGCAACAAAGTAATAATGCAGATGGACAGACTAATGAAAGACCAG (ssDNA) [pgdA ORF] |  |  | binding result (SpoVG-6-His [4]): binds
